The experiment deals with neonatal FcR (FcRn) (UniProt P55899). Briefly: BLI + SPR.
Sequence of UniProt P55899 (P55899 24-365): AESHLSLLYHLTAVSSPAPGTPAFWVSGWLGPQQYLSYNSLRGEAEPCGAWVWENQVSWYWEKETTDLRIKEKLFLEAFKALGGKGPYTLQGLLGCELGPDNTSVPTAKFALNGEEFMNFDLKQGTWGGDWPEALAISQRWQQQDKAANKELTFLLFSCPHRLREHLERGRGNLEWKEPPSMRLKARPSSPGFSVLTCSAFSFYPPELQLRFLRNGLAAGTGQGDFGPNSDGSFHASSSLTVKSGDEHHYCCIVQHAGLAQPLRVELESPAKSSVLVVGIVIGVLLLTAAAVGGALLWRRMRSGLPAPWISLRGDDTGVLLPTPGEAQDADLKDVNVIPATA
In the case of BAT1806/BIIB800 (antibody), the Relative FcRn affinity (%) was 104%.

As to forced deamidation TCZ (antibody), the Relative FcRn affinity (%) turned out to be 100%.

In the case of reference tocilizumab (antibody), the Relative FcRn affinity (%) came out at 96%.

These data come from paper PMC11906491.
